Test results: IntAct's records for PubMed 20638386

B1: Tubulin-folding cofactor A (Arabidopsis thaliana (Mouse-ear cress)), O04350 (parent)
chain: MATIRNLKIKTSTCKRIVKELHSYEKEVEREAAKTADMKDKGADPYDLKQQENVLGESRMMIPDCHKRLESALADLKSTLAELEETDEKEGPEIEDAKKTVADVEKQFPTEDA

Variants of: B1
Settings: with tbb9_arath TUBB9, P29517
tbb9_arath TUBB9, P29517, sequence (P29517 whole entry): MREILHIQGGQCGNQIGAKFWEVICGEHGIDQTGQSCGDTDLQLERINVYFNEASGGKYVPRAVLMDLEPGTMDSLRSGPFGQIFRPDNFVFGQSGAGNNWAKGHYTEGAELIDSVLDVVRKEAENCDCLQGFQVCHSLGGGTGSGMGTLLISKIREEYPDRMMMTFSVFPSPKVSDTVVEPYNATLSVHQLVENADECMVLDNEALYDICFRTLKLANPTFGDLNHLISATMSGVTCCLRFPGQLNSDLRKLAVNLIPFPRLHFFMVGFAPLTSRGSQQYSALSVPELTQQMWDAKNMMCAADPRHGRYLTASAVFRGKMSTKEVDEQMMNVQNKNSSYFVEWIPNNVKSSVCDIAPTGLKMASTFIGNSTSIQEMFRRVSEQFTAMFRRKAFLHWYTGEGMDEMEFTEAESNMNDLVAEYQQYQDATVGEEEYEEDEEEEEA

Row | Variant | effect of a mutation on the interaction
1 | MATIRNLKIKTSTCKRIVKALHSYEKEVEREAAKTADMKDKGADPYDLKQQENVLGESRMMIPDCHKRLESALADLKSTLAELEETDEKEGPEIEDAKKTVADVEKQFPTEDA | disrupting interaction

Variants of: B1
Settings: with tbb9_arath TUBB9, P29517
Remark: another data set of the same source

Row | Variant | effect of a mutation on the interaction
2 | MATIRNLKIKTSTCKRIVKELHSAEKEVEREAAKTADMKDKGADPYDLKQQENVLGESRMMIPDCHKRLESALADLKSTLAELEETDEKEGPEIEDAKKTVADVEKQFPTEDA | disrupting interaction

Variants of: B1
Settings: with tbb9_arath TUBB9, P29517
Remark: another data set of the same source

Row | Variant | effect of a mutation on the interaction
3 | MATIRNLKIKTSTCKRIVKELHSYEKEVEREAAKTADMKDKGADPYDLKQQENVLGASRMMIPDCHKRLESALADLKSTLAELEETDEKEGPEIEDAKKTVADVEKQFPTEDA | disrupting interaction
